Like-named read-outs stand apart in the source and are kept apart here.
Key:
[1] = target: T1, 人TIGIT重组蛋白 (hTIGIT; TIGIT-hFc 或 TIGIT-his) (human) (UniProt Q495A1); assay: ELISA on coated hTIGIT
T1 sequence (looked up): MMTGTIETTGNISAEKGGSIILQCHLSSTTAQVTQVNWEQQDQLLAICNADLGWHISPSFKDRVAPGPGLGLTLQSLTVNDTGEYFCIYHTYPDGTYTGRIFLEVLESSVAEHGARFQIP

[2] = target: T1, 人TIGIT重组蛋白 (hTIGIT; TIGIT-hFc 或 TIGIT-his) (human); assay: ELISA on coated hTIGIT; remark: listed apart in the source
[3] = target: 恒河猴TIGIT-mFc (rhesus monkey; mouse); assay: ELISA on coated RhTIGIT-mFc
[4] = target: T2, CHO-K1-T1001细胞表达的人TIGIT (human) (UniProt Q495A1); assay: cell ELISA on fixed hTIGIT+ CHO-K1 cells
T2 sequence (looked up): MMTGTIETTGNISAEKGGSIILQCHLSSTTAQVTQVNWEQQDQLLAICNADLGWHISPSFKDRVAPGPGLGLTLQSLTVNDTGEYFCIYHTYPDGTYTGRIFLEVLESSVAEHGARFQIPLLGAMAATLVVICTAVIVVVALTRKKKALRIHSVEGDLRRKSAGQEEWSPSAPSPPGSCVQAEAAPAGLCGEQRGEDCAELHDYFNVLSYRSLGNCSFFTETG

[5] = target: T2, CHO-K1-T1001细胞表达的人TIGIT (human); assay: cell ELISA on fixed hTIGIT+ CHO-K1 cells; remark: listed apart in the source
人TIGIT-hFc (human) [6] = target: 人TIGIT-hFc (human) (UniProt Q495A1); assay: blocking ELISA: Bio-CD155 on coated TIGIT-hFc
人TIGIT-hFc (human) [7] = target: 人TIGIT-hFc (human) (UniProt Q495A1); assay: blocking ELISA: Bio-CD155 on coated TIGIT-hFc; remark: listed apart in the source

Sequence of 恒河猴TIGIT-mFc (rhesus monkey; mouse) (P01863 other isoform, or with tags, fused parts or gaps): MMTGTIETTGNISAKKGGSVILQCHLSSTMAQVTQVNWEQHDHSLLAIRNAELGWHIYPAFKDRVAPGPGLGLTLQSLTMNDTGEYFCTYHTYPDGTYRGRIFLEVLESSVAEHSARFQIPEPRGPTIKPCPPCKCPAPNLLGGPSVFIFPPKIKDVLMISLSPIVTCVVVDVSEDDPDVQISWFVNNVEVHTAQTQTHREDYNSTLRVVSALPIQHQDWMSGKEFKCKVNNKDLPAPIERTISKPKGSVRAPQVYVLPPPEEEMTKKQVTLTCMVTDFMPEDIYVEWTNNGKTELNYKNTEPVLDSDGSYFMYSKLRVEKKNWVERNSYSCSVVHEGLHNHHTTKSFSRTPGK

阳性对照抗体Ref1 (罗氏RG6058) (antibody)
EC50 [1]: 0.462 nM | EC50 [2]: 1.13 nM | EC50 [3]: 0.243 nM | EC50 [4]: 0.138 nM | EC50 [5]: 0.0268 nM | IC50 (人TIGIT-hFc (human) [6]): 1.19 nM | IC50 (人TIGIT-hFc (human) [7]): 3.3 nM

Reference: CN116355095A
